From article PMC2188280 (The Journal of Experimental Medicine, 1987)

B1: CD2, purified, detergent-solubilized (receptor, human (endogenous in Jurkat or SKW3), UniProt P06729 25-351, looked up)
chain: KEITNALETWGALGQDINLDIPSFQMSDDIDDIKWEKTSDKKKIAQFRKEKETFKEKDTYKLFKNGTLKIKHLKTDDQDIYKVSIYDTKGKNVLEKIFDLKIQERVSKPKISWTCINTTLTCEVMNGTDPELNLYQDGKHLKLSQRVITHKWTTSLSAKFKCTAGNKVSKESSVEPVSCPEKGLDIYLIIGICGGGSLLMVFVALLVFYITKRKKQRSRRNDEELETRAHRVATEERGRKPHQIPASTPQNPATSQHPPPPPGHRSQAPSHRPPPPGHRVQHQPQKRPPAPSGTQVHQQKGPPLPRPRVQPKPPHGAAENSLSPSSN
B2: lymphocyte function-associated antigen 3 (LFA-3) on human erythrocytes (ligand, human (endogenous in erythrocytes), UniProt P19256 29-250, looked up)
chain: FSQQIYGVVYGNVTFHVPSNVPLKEVLWKKQKDKVAELENSEFRAFSSFKNRVYLDTVSGSLTIYNLTSSDEDEYEMESPNITDTMKFFLYVLESLPSPTLTCALTNGSIEVQCMIPEHYNSHRGLIMYSWDCPMEQCKRNSTSIYFKMENDLPQKIQCTLSNPLFNTTSSIILTTCIPSSGHSRHRYALIPIPLAVITTCIVLYMNGILKCDRKPDRTNSN

Legend:
[1] = target: B2; assay: flow cytometry on cells
[2] = target: B1; assay: flow cytometry on cells

Binder | IC50 [1] [nM] | Ka [2] [M⁻¹]
B1 | ~30 | 
B2 |  | ~3e+07
